Paper PMC3001067 (Nucleic Acids Research, 2010)

Legend:
[1] = target: Thermus aquaticus RNAP β-subunit β1 domain (Taq β 17–139 –Gly–Gly– 334–395) (Thermus aquaticus) (UniProt Q9KWU7); test: crystal structure
[2] = target: Tth RNAP-β1 Q99R (Tth RNAP β-subunit residues 10–133), two-hybrid fusion (Thermus thermophilus) (UniProt Q8RQE9); test: two-hybrid
[3] = target: Tth RNAP β-subunit residues 10–133 (Tth RNAP-β1), two-hybrid fusion (Thermus thermophilus) (UniProt Q8RQE9); test: two-hybrid
[4] = target: Eco RNAP β-subunit residues 19–142 (Eco RNAP-β1), two-hybrid fusion (Escherichia coli) (UniProt P0A8V2); test: two-hybrid
[5] = target: T1, Tth RNAP-β1 Q99R (Tth RNAP β-subunit residues 10–133), two-hybrid fusion (Thermus thermophilus, UniProt Q8RQE9 10-133, Q99R); test: two-hybrid
T1 sequence (looked up): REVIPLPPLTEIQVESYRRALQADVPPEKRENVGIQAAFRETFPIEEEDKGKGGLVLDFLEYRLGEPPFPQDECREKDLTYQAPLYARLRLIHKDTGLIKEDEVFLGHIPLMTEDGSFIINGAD

[6] = target: Eco RNAP β-subunit residues 19–142 (Eco RNAP-β1), two-hybrid fusion (Escherichia coli, UniProt P0A8V2 19-142); test: two-hybrid

In the case of “Thermus thermophilus HB27 TRCF RNAP interacting domain (Tth TRCF–RID, residues 321–387) (domain or fragment)”, the stoichiometry N [1] is reported as 1.

Work on “Tth TRCF residues 314–444 (Tth TRCF–RID), two-hybrid fusion (domain or fragment)” yielded a fold defect of the two-hybrid signal against wild-type Tth RNAP-β1 [2] of 2 fold.

Work on “Tth TRCF–RID R341L (Tth TRCF residues 314–444), two-hybrid fusion (domain or fragment)” yielded a fold defect of the two-hybrid signal against wild-type Tth TRCF–RID [3] of 2 fold and a fold change of the two-hybrid signal against wild-type Tth TRCF–RID [4] of 2 fold.

B1: Eco TRCF residues 472–603 (Eco TRCF–RID), two-hybrid fusion (domain or fragment, Escherichia coli, UniProt P30958 472-603, looked up)
chain: RNLAELHIGQPVVHLEHGVGRYAGMTTLEAGGITGEYLMLTYANDAKLYVPVSSLHLISRYAGGAEENAPLHKLGGDAWSRARQKAAEKVRDVAAELLDIYAQRAAKEGFAFKHDREQYQLFCDSFPFETTP
With B1 the “fold change of the two-hybrid signal against wild-type Tth RNAP-β1” value [5] was roughly 2 fold.

B2: Eco TRCF–RID L499R (Eco TRCF residues 472–603), two-hybrid fusion (domain or fragment, Escherichia coli, UniProt P30958 472-603, looked up)
chain: RNLAELHIGQPVVHLEHGVGRYAGMTTREAGGITGEYLMLTYANDAKLYVPVSSLHLISRYAGGAEENAPLHKLGGDAWSRARQKAAEKVRDVAAELLDIYAQRAAKEGFAFKHDREQYQLFCDSFPFETTP
For B2, the “fold defect of the two-hybrid signal against wild-type Eco TRCF–RID” value [6] was roughly 10 fold.
